Results on 133 substances are retold here after the supplement of paper PMC12042874.

The nature of the data set: amyloid nucleation score (Sup35N fusion, yeast selection) (log enrichment); library NNK3; higher = more nucleation; inactive = no reads after selection. The method, boiled down:
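Yeast lacking psi expressed peptides of 20 random codons fused to Sup35N, received 100 μM copper sulfate for 24 hours, and were then grown for 7 days at 30°C on medium lacking adenine and uracil. Illumina sequencing of input and output plasmid inserts provided the reads. Nucleation scores are DiMSum log enrichments of output over input, centred on the mode of non-aggregating sequences. Any sequence with under 100 input reads was excluded.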

± gives the uncertainty stated by the source.

Substance GRDAVLI showed an amyloid nucleation score of -0.785 ± 1.1.

Consider TLDLSHTMVCRLEYFSSAIG, for which the amyloid nucleation score result was “inactive”.

As for PMHLTKVHVVRNFVTQSTRG, the amyloid nucleation score entry was “inactive”.

LVESDLYVCTTVRGQVSMKG: the amyloid nucleation score result is “inactive”.

For the substance RCLSDCYVRNECTF, the amyloid nucleation score entry was “inactive”.

As to WGESNVSTIV, the amyloid nucleation score entry was “inactive”.

On to CIIFTRMATTGG, for which the amyloid nucleation score result is “inactive”.

Substance VGNFTWICKI returned an amyloid nucleation score of 2.48 ± 0.056.

Turning to RSRVRKRYWLTACP, the amyloid nucleation score entry was “inactive”.

As to ILQMVDVGMEICYTPVLAYF, the amyloid nucleation score result is “inactive”.

LFMYMMPQGPSVTANMELVI registered an amyloid nucleation score of -0.742 ± 1.1.

In the case of AYINTRYGFFGNLVDDTKSS, the amyloid nucleation score entry is “inactive”.

The substance ILVFM yielded an amyloid nucleation score of 0.509 ± 0.24.

On to HLMTQMATRRL, for which the amyloid nucleation score entry was “inactive”.

In turn, FLDQLSVHMQCISLEFNFGV yielded an amyloid nucleation score of 2.42 ± 0.068.

In the case of YLYGGVLGVSSDEGLADGKD, the amyloid nucleation score entry was “inactive”.

Turning to FLSDSLNARS, the amyloid nucleation score result is “inactive”.

With DFGVGN, the amyloid nucleation score result was “inactive”.

In the case of LVTDGMRRSEICLMVYSN, the amyloid nucleation score result is “inactive”.

Regarding WCGVFWLVVMAY, the amyloid nucleation score result is “inactive”.

Consider RSKWRCRTLVDWRLQV, for which the amyloid nucleation score entry is “inactive”.

Consider SCSWVREWYRRLHRWGCGQW, for which the amyloid nucleation score is 0.656 ± 0.28.

As to IFYCLSYLGTSVVEIHCLYA, the amyloid nucleation score result is “inactive”.

In the case of YCCNGYPACG, the amyloid nucleation score result was “inactive”.

FSSMANNIL: the amyloid nucleation score entry is “inactive”.

Take LSHPTPQSCRHFVFNLKLSA: the amyloid nucleation score result was “inactive”.

Turning to HFPSFFSIIPYRACNTACSA, the amyloid nucleation score is -0.984 ± 1.4.

As for KDVYCRGVGG, the amyloid nucleation score result is “inactive”.

On to WVEWIWSWKNDVPLVCRASA, for which the amyloid nucleation score result was “inactive”.

As to WPIIGTLNRTSGSDR, the amyloid nucleation score entry was “inactive”.

Consider LWIPLWNVRKVYIIGQCLT, for which the amyloid nucleation score result was “inactive”.

SVDDTLSVNGSSRSCGRGCR yielded an amyloid nucleation score of -1.02 ± 1.5.

In the case of IRVMA, the amyloid nucleation score result was “inactive”.

Consider CVDCRGESAHLLIARWFMRR, for which the amyloid nucleation score worked out at 0.387 ± 0.38.

The substance RGKSLFLINTDM yielded an amyloid nucleation score of -0.148 ± 0.7.

Take KHILFE: the amyloid nucleation score result is “inactive”.

As to LSVLWYSWWGFNTG, the amyloid nucleation score entry is “inactive”.

Take SGVYHRICSISLYQVSMR: the amyloid nucleation score entry is “inactive”.

As to HAVLFSVDVSYYLVPALLFR, the amyloid nucleation score entry is “inactive”.

For the substance SAGISYFCDILKSTYAVFAV, the amyloid nucleation score result was “inactive”.

The substance TLSAEGVRRLFTCACSYHEG returned an amyloid nucleation score of 0.532 ± 0.47.

Take VRVSPLCIGRPALGQAIAVF: the amyloid nucleation score entry was “inactive”.

Consider FVEVRVD, for which the amyloid nucleation score result is “inactive”.

For the substance MIKPIIHFSGG, the amyloid nucleation score result was “inactive”.

Regarding LFRPSL, the amyloid nucleation score result is “inactive”.

For DYCGKRYPSASVKWPECFRG, the amyloid nucleation score result was “inactive”.

In the case of TCWFGIQLSGL, the amyloid nucleation score was 0.651 ± 0.2.

As for SGRVSTDEKLVKFLRN, the amyloid nucleation score result is “inactive”.

As to ISSFCRGLVAFEPCWFGLEK, the amyloid nucleation score result was “inactive”.

On to TSPPGRIDMQTSWDMFYADE, for which the amyloid nucleation score result is “inactive”.

RPRALRQTLFDRYL returned an amyloid nucleation score of 0.872 ± 0.13.

The substance HQARIYVSYYPVLSFDPFRK showed an amyloid nucleation score of 2.06 ± 0.074.

TVHNKMPHRLWNCTTLE: the amyloid nucleation score result was “inactive”.

On to YSALRFSKSCGRPCCVYNSF, for which the amyloid nucleation score entry was “inactive”.

Take FQLSPTDRVYRDRSAYDVEG: the amyloid nucleation score entry was “inactive”.

Consider YTVEWWVINCFGGKADL, for which the amyloid nucleation score result was “inactive”.

Consider SRRKGQVVGCLQTMCCCKVE, for which the amyloid nucleation score result was “inactive”.

For the substance YSFHLIIESPKLVLFTHFTS, the amyloid nucleation score result is “inactive”.

FMYLT: the amyloid nucleation score entry was “inactive”.

On to GTRMNGSGFVKRAL, for which the amyloid nucleation score result is “inactive”.

Take IWPWSFALIMS: the amyloid nucleation score entry was “inactive”.

With NVCDRLLDKPHELSFSEKSV, the amyloid nucleation score result is “inactive”.

Consider NSKNFIMSISRLGYLASF, for which the amyloid nucleation score result was “inactive”.

Take WGFLQLHEPS: the amyloid nucleation score result is “inactive”.

DGCVEELWRGRVLMKMFTHS: the amyloid nucleation score result was “inactive”.

As to GRILLYLNEFFSGRIISLHK, the amyloid nucleation score result was “inactive”.

For the substance HISWFIFLCGGSFDSVMLAN, the amyloid nucleation score entry was “inactive”.

With LKLFLRVYCIDI, the amyloid nucleation score was found to be 0.535 ± 0.23.

Consider ICKRYYLPINFRG, for which the amyloid nucleation score entry was “inactive”.

With SESMDGNFQKCLSAVCALIE, the amyloid nucleation score entry was “inactive”.

In turn, SYAANGVWRSYDLCYQCQKV displayed an amyloid nucleation score of -0.712 ± 1.1.

Regarding DPSPGYLLSY, the amyloid nucleation score result is “inactive”.

Turning to RSWSLCIGFMFFVRNS, the amyloid nucleation score entry was “inactive”.

With GSQRLLALWNY, the amyloid nucleation score result was “inactive”.

As for RILVGLNCS, the amyloid nucleation score entry was “inactive”.

RRDPDPTLIPG: the amyloid nucleation score result was “inactive”.

Turning to GTIRQS, the amyloid nucleation score entry is “inactive”.

Take SLSSSWFFNISSNADMPCYN: the amyloid nucleation score entry is “inactive”.

On to QTSRT, for which the amyloid nucleation score result is “inactive”.

For the substance LYAWPHRTIVVVWLRILLFR, the amyloid nucleation score result was “inactive”.

Consider NVQRNVNAE, for which the amyloid nucleation score result was “inactive”.

In the case of LFSMSVSASHHWLERSFLTR, the amyloid nucleation score result was “inactive”.

As to SKSHLTIVSSYDHFHYMVRV, the amyloid nucleation score entry was “inactive”.

In turn, RQLSSQREWECATPMRHRLA had an amyloid nucleation score of 0.145 ± 0.51.

With FVNLAGLFGSRGTNLLCLGE, the amyloid nucleation score entry was “inactive”.

On to WLTYYIDFRVILSFQSVRDY, for which the amyloid nucleation score entry was “inactive”.

Take ESNDIIINV: the amyloid nucleation score entry is “inactive”.

In the case of TYFDFVLYV, the amyloid nucleation score entry was “inactive”.

On to RLNWASVRRFTLIGRSVRRS, for which the amyloid nucleation score entry was “inactive”.

For DSDKNPHGVLSSIGCMYVRS, the amyloid nucleation score entry is “inactive”.

As for LYVFYCVTHLHSIGPGQCLR, the amyloid nucleation score result is “inactive”.

As to VMFFDIKIMARFWTPNEL, the amyloid nucleation score result was “inactive”.

On to ALFYHFL, for which the amyloid nucleation score entry is “inactive”.

As to AVYLCI, the amyloid nucleation score result is “inactive”.

VRTYNQCKSHVLDWLRNTYF registered an amyloid nucleation score of -0.295 ± 0.96.

In the case of SFMLVFNDSAWLTSAHVYWA, the amyloid nucleation score entry was “inactive”.

As for KNTVSYSATLGKVSMSERRR, the amyloid nucleation score entry is “inactive”.

As for VFLSAVAGDYIV, the amyloid nucleation score entry is “inactive”.

With YLMVNICMNDPWVYEMVSLY, the amyloid nucleation score turned out to be 0.902 ± 0.2.

For the substance FSCVGGGSSNIWREVTDTCS, the amyloid nucleation score entry is “inactive”.

Consider CLALYRGRMLSGKVRRCTTS, for which the amyloid nucleation score result was “inactive”.

The substance MVKLCALSCSIALDPIQTFK gave an amyloid nucleation score of 0.426 ± 0.19.

Regarding APSNGRE, the amyloid nucleation score entry is “inactive”.

Consider NNGSP, for which the amyloid nucleation score result was “inactive”.

With PFNLPMARNETWGTVQAKIR, the amyloid nucleation score entry was “inactive”.

Turning to KRSDVYVGKNCSEDMRFSNL, the amyloid nucleation score entry is “inactive”.

Turning to LYCECYSSLLCYGRLPAKTR, the amyloid nucleation score result was “inactive”.

As for AVVARGGVLVGTLCFLFWLS, the amyloid nucleation score entry was “inactive”.

YFVALVS: the amyloid nucleation score result was “inactive”.

On to TVWKGIREYSRS, for which the amyloid nucleation score entry was “inactive”.

As for LLMFHCQMMSLGGYTSVSAR, the amyloid nucleation score result was “inactive”.

With YDLVIGCVMNVLFVLRCATR, the amyloid nucleation score result is “inactive”.

With IYLMVFNCMFEVTFRLSVES, the amyloid nucleation score entry was “inactive”.

In the case of GFIDVPG, the amyloid nucleation score result was “inactive”.

YYSFFDIFCVITSRANFGRP displayed an amyloid nucleation score of 1.28 ± 0.17.

With ERRVLISERAQWISLLYGIL, the amyloid nucleation score result was “inactive”.

As for SFSDYEDMAQHLAPEAYNKC, the amyloid nucleation score entry is “inactive”.

In turn, ISVTNGIMMVPLNGSNLFPS had an amyloid nucleation score of -0.166 ± 0.62.

For NSKLRLFWRTGMVHSVVDVS, the amyloid nucleation score entry is “inactive”.

For the substance TISCTDNFCSFILIRDGLTH, the amyloid nucleation score was 1.96 ± 0.059.

IRYPVRV: the amyloid nucleation score result is “inactive”.

Take TEISSSMSFVHNFIYVCDR: the amyloid nucleation score result is “inactive”.

For the substance LLFTCQSDKDYVRFFVQFNW, the amyloid nucleation score entry was “inactive”.

LLMYARYSG displayed an amyloid nucleation score of 1.52 ± 0.11.

The substance YGWVVSSLCYGKFYICIWNL registered an amyloid nucleation score of 0.797 ± 0.22.

As to QVGVWRNNGYEYYRGRNLRG, the amyloid nucleation score entry was “inactive”.

Regarding LYSAAVVNGGLCDRL, the amyloid nucleation score entry was “inactive”.

DYMLLWNCVLVILFN had an amyloid nucleation score of 0.323 ± 0.45.

Regarding LRMFSRVGRNRCYNITSFTC, the amyloid nucleation score result was “inactive”.

Turning to PNGALK, the amyloid nucleation score entry was “inactive”.

As for LAYYRPRQEWVPCNSVGLK, the amyloid nucleation score entry is “inactive”.

As to CTGSWMVTAERLARACHTRL, the amyloid nucleation score entry is “inactive”.

On to YDGRIGRYSSYIKKCF, for which the amyloid nucleation score result was “inactive”.
